Earlier results in publication PMC5302535.

Target: transferrin receptor (TfR) (Homo sapiens) (UniProt P02786)
Sequence (P02786 89-760): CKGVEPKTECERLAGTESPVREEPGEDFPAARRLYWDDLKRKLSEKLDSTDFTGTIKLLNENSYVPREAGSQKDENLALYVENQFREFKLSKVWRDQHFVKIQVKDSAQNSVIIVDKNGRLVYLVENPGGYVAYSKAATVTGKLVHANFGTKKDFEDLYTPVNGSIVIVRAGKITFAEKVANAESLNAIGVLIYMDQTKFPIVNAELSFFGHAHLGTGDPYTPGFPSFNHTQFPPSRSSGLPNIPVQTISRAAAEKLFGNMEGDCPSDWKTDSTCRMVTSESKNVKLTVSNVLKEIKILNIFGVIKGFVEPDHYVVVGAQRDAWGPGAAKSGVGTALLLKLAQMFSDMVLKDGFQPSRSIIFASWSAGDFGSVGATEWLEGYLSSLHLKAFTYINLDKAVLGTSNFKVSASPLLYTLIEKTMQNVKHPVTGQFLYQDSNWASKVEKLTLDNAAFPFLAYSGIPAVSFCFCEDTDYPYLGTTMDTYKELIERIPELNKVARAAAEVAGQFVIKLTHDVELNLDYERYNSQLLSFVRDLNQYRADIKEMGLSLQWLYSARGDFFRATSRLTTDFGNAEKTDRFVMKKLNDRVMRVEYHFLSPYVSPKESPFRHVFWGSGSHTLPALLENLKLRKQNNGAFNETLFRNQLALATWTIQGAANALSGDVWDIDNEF

Kd: 10 nM
Substance: T7 peptide
